Assay results taken from the supplement of paper PMC9170038.

System: MS2 coat protein
Test: apparent KD of MS2 coat protein; designed switch direction (-1 OFF switch, 1 ON switch): -1; higher = weaker reporter binding
In short: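 Designed RNA switches were transcribed on Illumina chips by stalled E. coli RNA polymerase and titrated with SNAP-549-labelled MS2 coat protein from 0.7 or 1.5 nM, doubling to 3 µM. Step length ran from 0.8–1.5 h at the lowest concentration to 10–20 min at the highest. The apparent KD is the median over clusters for each design, from curve-fitted normalised cluster fluorescence.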

[1] = input ligand: microRNA oligo, concentration not stated
[2] = Eterna round: R95, input ligand: microRNA oligo, concentration not stated
[3] = Eterna round: R95, input ligand: FMN 200 uM
[4] = Eterna round: R95, input ligand: none

Row | Sequence | apparent KD of MS2 coat protein (input ligand: FMN 200 uM) [nM] | apparent KD of MS2 coat protein [1] [nM] | apparent KD of MS2 coat protein (input ligand: none) [nM] | apparent KD of MS2 coat protein [2] [nM] | apparent KD of MS2 coat protein [3] [nM] | apparent KD of MS2 coat protein [4] [nM]
1 | AAGGUACGAGGAUAUACAUAGAUACAGACACAUGUGCAUGUACAUGAGGAUCACCCAUGUAGAAGGCGUAUAUA [AJ 18] (Eterna round: R96, puzzle: Exclusion 2) | 248 | 50.2 | 51.8 |  |  | 
2 | ACUAGAUGAGGAUAUACACAUUUUAGUGUUCCUCUAGAUUAACAUGAGGAUCACCCAUGUAGAAGGCAUCAAUU [Exclusion 2 - 11] (puzzle: Exclusion 2) |  |  |  | 57.8 |  | 
3 | GAUGAGGGAGUGAGGAUAUAUACCGGCUCACCGGAGUAGAAGGCACAUGAGGAUCACCCAUGUGACCUUAACCU [Eternabot (L2) Solution 92] (Eterna round: R97, puzzle: Brourd's mod of Exclusion 4) | 15.3 |  | 14.1 |  |  | 
4 | UACAUGAGGAUCACCCAUGUUUUGUCGUGUAUGGUAUUUAUCUAGGAUAUCAAUCUAUUUAUUUAUGAGAAGGAGAAUAUUAAU [JMF's solution 13] (Eterna round: R96, puzzle: Exclusion NG 3) | 39.6 | 25.7 | 42.3 |  |  | 
5 | AAGGCGUCAGGAUAUCCAAUAUAUGACAUGAGGAUCACCCAUGUUUCCACUCGUACCUCCGGAGAAGGGACAAAUA [Ex5 #87] (Eterna round: R97, puzzle: Exclusion 5) | 35.6 |  | 38 |  |  | 
6 | CUGAGCAGACGGAGAUCCAACAUGAGGAUCACCCAUGUCUCAAAAGCUUUUUGCUUGUCUUAUUCUCCUCUGUUCAC [Enradibe] (puzzle: Sensor v3, turn-off variant 1) |  |  |  | 31.6 | 13.2 | 11.2
7 | GCAGAAUGAGUUAGGAUAUGAUGAUUUUUUUUAUAUCAGAAGGAACUUGAGGAUCACCCAAGUUAAGAUAGGGU [JR_BMEx4_Sub067] (Eterna round: R97, puzzle: Brourd's mod of Exclusion 4) | 89.2 |  | 138 |  |  | 
8 | GUGCCGCGAGGAUAUACAGACGGGUCCAUUACGUGUCUCGGACUUGAGGAUCACCCAAGUAGAAGGCGUCUCAG [salish99_ex2_r4_625] (Eterna round: R97, puzzle: Exclusion 2) | 51.3 |  | 40.2 |  |  | 
9 | GAAAACGCAGAGGAUAUAUCAGAUCAAAGCUGCAUAGAAGGCUGCACAUGAGGAUCACCCAUGUGGUCUUCAAU [Mat - Exclusion 6 - JL Mod - D5] (Eterna round: R97, puzzle: Exclusion 6) | 282 |  | 23.8 |  |  | 
10 | GUAGAUCGAGUUAGGAUAUGAUUAAAAUCCGGAUAUCAGAAGGAACUUGAGGAUCACCCAAGUAUAGAUGAUUC [JR_BMEx4_Sub056] (Eterna round: R97, puzzle: Brourd's mod of Exclusion 4) | 216 |  | 47.9 |  |  | 
11 | CACCGUUACAGAGGAUAUGGCACAUGAGGAUCACCCAUGUAAUAAAUGAGAAUUUCGGAUGUAUUCCAGAAGGCUGUAACCGGC [Ostricism 68 - Jieux - Exclusion NG 2] (Eterna round: R96, puzzle: Exclusion NG 2) | 41.2 | 19 | 35.6 |  |  | 
12 | GGUGUCUUCAGAAGACAUGAGGAUCACCCAUGUAAAUGCACUGAGGAUAUACGGGCGACCGGCGUGUAGAAGGUAGAGCACGAA [Bivezale] (Eterna round: R96, puzzle: Exclusion NG 3) | 13.7 | 8.37 | 17.5 |  |  | 
13 | ACAAGCUCUUUGCAUCUUAGUUUUGUUGCUUCGUAUGUAACAUGAGGAUCACCCAUGUAAGACUGAUGUCGUCUUUU [JR_SV3TOV2_Sub087] (puzzle: Sensor v3, turn-off variant 2) |  |  |  | 30 | 43.8 | 48.2
14 | UGCUACAUGAGGAUCACCCAUGUAAUGUGGGAAUCGUUAGGACAGGAUAUGAUUGUAUUGUUUUUUCAGAAGGGUCAUUACUUU [JR_ExcNG3_Sub012] (Eterna round: R96, puzzle: Exclusion NG 3) |  | 212 |  |  |  | 
15 | GAUUAUGCGAGCUUUAGGGACAUGAGGAUCACCCAUGUUCGUCUUAUUGGUCUGGAUACACUAACAUACCUAAAUCU [JMF 14] (puzzle: Sensor v3, turn-off variant 1) |  |  |  | 27.9 | 19.2 | 21.2
